Reference: patent publication US20140271675A1 (Eli Lilly, published 2014)

Key:
[1] = biological target: hVEGFR1-Fc (R&D 321-fl 050/cf) (human) (UniProt P17948); assay: competition ELISA, coated hVEGFR1-Fc, competitor biotin-hPLGF1 4 nM; control Ron antibody 0.0206 µg/ml
[2] = biological target: hVEGFR1-Fc (R&D 321-fl 050/cf) (human) (UniProt P17948); assay: competition ELISA, coated hVEGFR1-Fc, competitor biotin-hVEGFA-165 2 nM; control Ron antibody 0.0617 µg/ml
[3] = biological target: hVEGFR1-Fc (R&D 321-fl 050/cf) (human) (UniProt P17948); assay: competition ELISA, coated hVEGFR1-Fc, competitor biotin-hVEGFA-165 2 nM; control Ron antibody 1.852 µg/ml
[4] = biological target: hVEGFR1-Fc (R&D 321-fl 050/cf) (human) (UniProt P17948); assay: competition ELISA, coated hVEGFR1-Fc, competitor biotin-hPLGF1 2 nM; control Ron antibody 50.000 µg/ml
[5] = biological target: hVEGFR1-Fc (R&D 321-fl 050/cf) (human) (UniProt P17948); assay: competition ELISA, coated hVEGFR1-Fc, competitor biotin-hVEGFA-165 2 nM; control Ron antibody 0.0206 µg/ml
[6] = biological target: hVEGFR1-Fc (R&D 321-fl 050/cf) (human) (UniProt P17948); assay: competition ELISA, coated hVEGFR1-Fc, competitor biotin-hPLGF1 4 nM; control Ron antibody 0.0023 µg/ml
[7] = biological target: hVEGFR1-Fc (R&D 321-fl 050/cf) (human) (UniProt P17948); assay: competition ELISA, coated hVEGFR1-Fc, competitor biotin-hPLGF1 2 nM; control Ron antibody 0.617 µg/ml
[8] = biological target: hVEGFR1-Fc (R&D 321-fl 050/cf) (human) (UniProt P17948); assay: competition ELISA, coated hVEGFR1-Fc, competitor biotin-hPLGF1 4 nM; control Ron antibody 0.1852 µg/ml

Chain of hVEGFR1-Fc (R&D 321-fl 050/cf) (human) (P17948 27-758): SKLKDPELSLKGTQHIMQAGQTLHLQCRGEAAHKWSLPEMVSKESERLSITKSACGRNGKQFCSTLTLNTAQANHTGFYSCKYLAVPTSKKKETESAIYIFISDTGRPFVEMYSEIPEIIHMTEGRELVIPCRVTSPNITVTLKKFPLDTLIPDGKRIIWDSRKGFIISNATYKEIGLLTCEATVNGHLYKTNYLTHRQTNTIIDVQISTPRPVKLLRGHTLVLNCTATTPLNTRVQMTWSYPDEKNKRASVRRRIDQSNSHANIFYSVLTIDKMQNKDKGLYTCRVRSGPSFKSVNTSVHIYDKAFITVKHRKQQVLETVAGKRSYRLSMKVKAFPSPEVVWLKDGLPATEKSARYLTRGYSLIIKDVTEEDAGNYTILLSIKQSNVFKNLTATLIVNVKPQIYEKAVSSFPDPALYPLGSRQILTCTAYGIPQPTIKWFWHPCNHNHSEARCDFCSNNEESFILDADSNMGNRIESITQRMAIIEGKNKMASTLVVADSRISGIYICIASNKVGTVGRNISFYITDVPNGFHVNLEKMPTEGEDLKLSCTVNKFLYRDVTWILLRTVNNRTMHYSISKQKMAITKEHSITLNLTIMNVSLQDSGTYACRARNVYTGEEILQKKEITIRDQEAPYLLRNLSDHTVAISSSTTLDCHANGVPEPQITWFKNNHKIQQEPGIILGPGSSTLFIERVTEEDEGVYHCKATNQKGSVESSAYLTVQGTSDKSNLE

- OD560 (bound biotinylated PlGF) [1]: 0.389 OD
- OD560 (bound biotinylated VEGF-A) [2]: 1.51 OD
- OD560 (bound biotinylated VEGF-A) [3]: 0.53 OD
- OD560 (bound biotinylated PlGF) [4]: 0.339 OD
- OD560 (bound biotinylated VEGF-A) [5]: 1.62 OD
- OD560 (bound biotinylated PlGF) [6]: 0.359 OD
- OD560 (bound biotinylated PlGF) [7]: 0.295 OD
- OD560 (bound biotinylated PlGF) [8]: 0.405 OD
Substance: control Ron antibody (R&D MAB691)
